Laboratory results published in publication PMC7459424.

Biological target: T1, recombinant Strep-Flag-IL-17 (SF-IL-17), murine (mouse), Q62386
T1 chain: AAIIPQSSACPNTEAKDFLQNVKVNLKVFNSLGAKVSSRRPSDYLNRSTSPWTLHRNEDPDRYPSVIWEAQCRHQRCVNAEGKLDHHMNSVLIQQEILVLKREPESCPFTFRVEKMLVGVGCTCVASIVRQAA
Test: SDS-PAGE without and with DTT, Coomassie stain; purified SF-IL-17 in SDS sample buffer, untreated or reduced with 50 mM DTT
Details: remark: other sources report otherwise

B1: recombinant Strep-Flag-IL-17 (SF-IL-17), murine, Q62386 26-158 (ligand)
chain: T1 chain
- stoichiometry N: 2
